Laboratory results: patent EP3733708A1

B1: Bispecific clone GS388 (9E3-17aa-3H4) (bispecific antibody)
chain: QLQLVEFGGGLVQAGGSLRLSCAASGSIFRGNAMVWYRQAPGKERELVATITNGGSTNYADSVKGRFTISRDNAKNTVYLQMNSLKPEDTAIYYCNDVIRGESGIYYPLNYWGQGTQVTVSSGGSEGGGSGGGGESGGGQVQFVESGGGLVQPGGSLRLSCAVSGSTFVVKHFAWFRQPPGNRRELVAATRGEGTTYYRDSVMGRFTISSDNPENTVYLQMTSLQPEDTAVYFCNVRSPGGEEFWGKGTLVTVSS
B2: 9E3 single domain antibody (VHH)
VHH: QLQLVEFGGGLVQAGGSLRLSCAASGSIFRGNAMVWYRQAPGKERELVATITNGGSTNYADSVKGRFTISRDNAKNTVYLQMNSLKPEDTAIYYCNDVIRGESGIYYPLNYWGQGTQVTVSS
B3: 3H4 single domain antibody (VHH)
VHH: QVQFVESGGGLVQPGGSLRLSCAVSGSTFVVKHFAWFRQPPGNRRELVAATRGEGTTYYRDSVMGRFTISSDNPENTVYLQMTSLQPEDTAVYFCNVRSPGGEEFWGKGTLVTVSS

Key:
[1] = target: Recombinant Human PD-1 (R&D Systems Inc) (human) (UniProt Q15116); assay: second ELISA blocking assay, PD-1 / PD-L1Fc; reference: unlinked mix of 9E3 and 3H4
Chain of UniProt Q15116 (Q15116 25-167 limits assumed): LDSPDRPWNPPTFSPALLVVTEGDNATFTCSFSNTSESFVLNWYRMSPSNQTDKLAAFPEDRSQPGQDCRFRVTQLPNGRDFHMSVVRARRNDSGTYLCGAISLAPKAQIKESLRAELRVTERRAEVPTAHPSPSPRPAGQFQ

[2] = target: Recombinant Human PD-1 (R&D Systems Inc) (human) (UniProt Q15116); assay: ELISA blocking, PD-1 coated, biotinylated PD-L1Fc, streptavidin-HRP; antibody at 1 ng/ml
[3] = target: Recombinant Human PD-1 (R&D Systems Inc) (human) (UniProt Q15116); assay: ELISA blocking, PD-1 coated, biotinylated PD-L1Fc, streptavidin-HRP; antibody at 10 ng/ml
[4] = target: Recombinant Human PD-1 (R&D Systems Inc) (human) (UniProt Q15116); assay: ELISA blocking, PD-1 coated, biotinylated PD-L1Fc, streptavidin-HRP; antibody at 0.1 ng/ml
[5] = target: Recombinant Human PD-1 (R&D Systems Inc) (human) (UniProt Q15116); assay: ELISA blocking, PD-1 coated, biotinylated PD-L1Fc, streptavidin-HRP; antibody at 100 ng/ml
[6] = target: Recombinant Human PD-1 (R&D Systems Inc) (human) (UniProt Q15116); assay: ELISA blocking, PD-1 coated, biotinylated PD-L1Fc, streptavidin-HRP; antibody at 0.01 ng/ml
[7] = target: Recombinant Human PD-1 (R&D Systems Inc) (human) (UniProt Q15116); assay: ELISA blocking, PD-1 coated, biotinylated PD-L1Fc, streptavidin-HRP; antibody at 1000 ng/ml
[8] = target: Recombinant Human PD-1 (R&D Systems Inc) (human) (UniProt Q15116); assay: ELISA blocking, PD-1 coated, biotinylated PD-L1Fc, streptavidin-HRP; antibody at 0.001 ng/ml
[9] = target: Recombinant Human PD-1 (R&D Systems Inc) (human) (UniProt Q15116); assay: ELISA blocking, PD-1 coated, biotinylated PD-L1Fc, streptavidin-HRP; antibody at 10000 ng/ml

Row | fold increase in blocking against a simple mix of 9E3 and 3H4 [1] [fold] | blocking ELISA signal (PD-L1Fc bound to PD-1) [2] | blocking ELISA signal (PD-L1Fc bound to PD-1) [3] | blocking ELISA signal (PD-L1Fc bound to PD-1) [4] | blocking ELISA signal (PD-L1Fc bound to PD-1) [5] | blocking ELISA signal (PD-L1Fc bound to PD-1) [6] | blocking ELISA signal (PD-L1Fc bound to PD-1) [7] | blocking ELISA signal (PD-L1Fc bound to PD-1) [8] | blocking ELISA signal (PD-L1Fc bound to PD-1) [9] | Binder
1 | > 10 | 1.09 | 0.947 | 1.1 | 0.197 | 1.12 | 0.103 | 1.11 | 0.102 | B1
2 |  | 1.06 | 1.09 | 1.08 | 0.965 | 1.11 | 0.457 | 1.17 | 0.104 | B2
3 |  | 1.06 | 1.1 | 1.07 | 0.964 | 1.08 | 0.927 | 1.11 | 0.833 | B3
